This assay has as its target nascent 77FtsQTAG27 (E. coli) (UniProt P06136). In words: cross-linking.
UniProt P06136, sequence (P06136 1-77): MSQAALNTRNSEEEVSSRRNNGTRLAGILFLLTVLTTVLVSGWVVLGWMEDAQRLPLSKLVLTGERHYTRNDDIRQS

B1: purified signal recognition particle (SRP: Ffh and 4.5S RNA) (complex)
chain: MFDNLTDRLSRTLRNISGRGRLTEDNVKDTLREVRMALLEADVALPVVREFINRVKEKAVGHEVNKSLTPGQEFVKIVRNELVAAMGEENQTLNLAAQPPAVVLMAGLQGAGKTTSVGKLGKFLREKHKKKVLVVSADVYRPAAIKQLETLAEQVGVDFFPSDVGQKPVDIVNAALKEAKLKFYDVLLVDTAGRLHVDEAMMDEIKQVHASINPVETLFVVDAMTGQDAANTAKAFNEALPLTGVVLTKVDGDARGGAALSIRHITGKPIKFLGVGEKTEALEPFHPDRIASRILGMGDVLSLIEDIESKVDRAQAEKLASKLKKGDGFDLNDFLEQLRQMKNMGGMASLMGKLPGMGQIPDNVKSQMDDKVLVRMEAIINSMTMKERAKPEIIKGSRKRRIAAGCGMQVQDVNRLLKQFDDMQRMMKKMKKGGMAKMMRSMKGMMPPGFPGR
As to B1, the concentration of SRP at which cross-linking saturated came out at 0.3 µM.

These data come from paper PMC2199365.
